{"source": "patent US20210395360A1", "about": "(published 2021)", "binders": {"B1": {"name": "D05 (full-length antibody with Li05 variable region) (antibody, V domains shown)", "VH": "EVQLLESGGGLVQPGGSLRLSCAASGFTFSAYAMGWVRQAPGKGLEWVSSIVSSGGYTDYADSVKGRFTISRDNSKNTLYLQMNSLRAEDTAVYYCAREGDHNAFDIWGQGTMVTVSS", "VL": "QSVLTQPPSVSVAPGQTARISCGGDNIGSKSVHWYQQRPGQAPVLVVYDDYDRPSGIPERFSGSNSGDTAILTITRVEVGDEADFYCQVRDSRTEERVFGGGTKVTVL"}, "B2": {"name": "2F3 monoclonal antibody (antibody, mouse IgG2a, V domains shown)", "VH": "EVKLEESGGGLVQPGGSMKLSCAASGFTFSDAWLDWVRQSPEKGLEWVAEIRSKANNHATNYAESVKGRFTISRDDSKSSVYLQMNSLRAEDTGIYFCTPSFAYWGQGTTVTVSS", "VL": "DIQMTQSPASLSASVGETVTITCRASGNIYNYLAWFQQKQGKSPQLLVYNAKTLPDGVPSRFSGSGSGTQYFLKINSLQPEDFGSYYCQHFWAIPYTFGGGTKLEIK", "notes": "murine IgG2a"}, "B3": {"name": "30-C12 (Li01) Fab (Fab, V domains shown)", "VH": "EVQLLESGGGLVQPGGSLRLSCAASGFTFSKYQMTWVRQAPGKGLEWVSSIYPSGGNTVYADSVKGRFTISRDNSKNTLYLQMNSLRAEDTAVYYCASGTTEAVFDYWGQGTLVTVSS", "VL": "DIQMTQSPSSLSASVGDRVTITCQASQDISNYLNWYQQKPGKAPKLLIYDASNLETGVPSRFSGSGSGTDFTLTISSLQPEDFATYYCQQADRFPAVTFGGGTKVEIK", "notes": "human, kappa; also called Dli01"}, "B4": {"name": "30-B01 (Li11) Fab (Fab, V domains shown)", "VH": "EVQLLESGGGLVQPGGSLRLSCAASGFTFSSYAMYWVRQAPGKGLEWVSSISTSGGYTGYADSVKGRFTISRDNSKNTLYLQMNSLRAEDTAVYYCARDTSDNDYYYMDVWGKGTTVTVSS", "VL": "DIQMTQSPSSVSAPIGDRVTITCRASQEIANYLAWYQQKPGKAPKLLIYDTYTLQTDVPPRFSGSGSGTDFTLTISSLQPEDTATYFCQQADIFPLSFGGGTKVEIK", "notes": "human, kappa; also called Li011; Dli11"}, "B5": {"name": "1A7 Fab (Fab, V domains shown)", "VH": "QVQLVQSGPELKKPGETVKISCKASGYTFTNYGMNWVKQAPGKGLKWMGWINTDTGEPTYTEDFQGRFAFSLETSASTVYLQFNNLKNEDTATYFCAREGVHFDYWGQGTTVTVSS", "VL": "QIVLTQSPAIMSASPGEKVTMTCSASSSVSYMHWYQQKSGTSPKRWIYDTSKLASGVPARFSGSGSGTSYSLTISSMEAEDAATYYCQQWSSNPFTFGSGTKLEIK", "notes": "Fab of murine IgG1/kappa 1A7"}, "B6": {"name": "3B5.2 monoclonal antibody (ATCC PTA-8106) (antibody, mouse IgG1, V domains shown)", "VH": "QVQLQQPGAELVRPGTSVKLSCRASGYTFTSYWMHWVKQRPGQGLEWIGVIDPSDSYTNYNQKFRGKATLTVDTSSSTAYMQLSSLTSEDSAVYYCARPYYGSHWFFDVWGTGTTVTVSS", "VL": "B5 VL with S28R, M32V, I47L, K52N, S62G, S64N, S92T, F95P, S99G", "notes": "murine IgG1/kappa; VL is named for 3B5.2; also called 3B5.5"}, "B7": {"name": "80-A08 (Dli33) Fab (Fab, V domains shown)", "VH": "EVQLLESGGGLVQPGGSLRLSCAASGFTFSIYPMFWVRQAPGKGLEWVSWIGPSGGITKYADSVKGRFTISRDNSKNTLYLQMNSLRAEDTATYYCAREGHNDWYFDLWGRGTLVTVSS", "VL": "DIQMTQSPGTLSLSPGERATLSCRASQSVSSYLAWYQQKPGQAPRLLIYDASNRATGIPARFSGSGSGTEFTLTISSLQSEDFAVYYCQQYDKWPLTFGGGTKVEIK", "notes": "human"}, "B8": {"name": "80-D02 (Dli34) Fab (Fab, V domains shown)", "VH": "EVQLLESGGGLVQPGGSLRLSCAASGFTFSNYEMYWVRQAPGKGLEWVSGIYSSGGITVYADSVKGRFTISRDNSKNTLYLQMNSLRAEDTAVYYCARAAILDWYFDLWGRGTLVTVSS", "VL": "DIQMTQSPSSLSASVGDRVTITCHASQDISNYLSWYQQKPGKAPKLLIYDAFNLETGVPSRFSGSGSGTDFTFTISSLQPEDFATYYCQHYDNLPFTFGPGTRVAIR", "notes": "human"}}, "key": {"[1]": {"target": "mouse Sp35 protein expressed on transfected cells (mouse) (UniProt Q9D1T0)", "assay": "FACS, stable CHO"}, "[2]": {"target": "T1, human Sp35, full-length, in cell lysate (immunoprecipitation, Western) (human, UniProt Q96FE5 40-620)", "T1 construct": "also called huSp35; hLINGO-1", "T1 sequence": "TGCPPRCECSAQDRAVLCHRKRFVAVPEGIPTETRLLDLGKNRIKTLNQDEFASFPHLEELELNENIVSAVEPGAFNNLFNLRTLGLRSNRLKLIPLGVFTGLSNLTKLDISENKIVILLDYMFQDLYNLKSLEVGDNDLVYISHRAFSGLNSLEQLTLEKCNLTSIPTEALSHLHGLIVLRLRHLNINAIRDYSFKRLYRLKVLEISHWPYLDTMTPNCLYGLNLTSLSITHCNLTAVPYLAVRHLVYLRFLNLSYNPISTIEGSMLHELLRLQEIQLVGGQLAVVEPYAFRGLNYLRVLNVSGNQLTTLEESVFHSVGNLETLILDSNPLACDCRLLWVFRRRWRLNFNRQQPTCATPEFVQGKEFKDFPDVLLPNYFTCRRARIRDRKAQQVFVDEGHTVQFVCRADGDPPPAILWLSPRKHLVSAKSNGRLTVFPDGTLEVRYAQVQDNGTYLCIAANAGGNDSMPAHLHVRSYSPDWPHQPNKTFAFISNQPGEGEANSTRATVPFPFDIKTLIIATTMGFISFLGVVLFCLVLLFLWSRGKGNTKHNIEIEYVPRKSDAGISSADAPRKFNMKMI", "assay": "IP", "description": "(§1) To perform the immunoprecipitation, COS-1 cells expressing Sp35, fused to a hemaglutinin (HA) tag on the N-terminus, were produced by transiently transfecting COS-1 cells with a DNA construct which expresses the full-length Sp35 protein with an HA tag. Cells were harvested 48 hr after transfection and were lysed in 1 ml lysis buffer (50 mM HEPES, pH 7.5, 150 mM NaCl, 1.5 mM MgCl₂, 1 mM EGTA, 1% Triton X-100 and 10% glycerol) for 30 min at 4° C. After centrifugation at 14,000×g for 15 min, the supernatants were incubated with ProteinA/G-Sepharose beads (Santa Cruz) at 4° C. for 1 hr, and then incubated at 4° C. for 1 hr with either the 1A7 or the 2F3 anti-Sp35 murine monoclonal antibodies. The beads were washed 3 times with lysis buffer, boiled in Laemmli sample buffer, subjected to 4-20% SD S-PAGE, and analyzed by Western blotting using an antibody which recognizes the HA tag. As shown on the SDS-PAGE gel, monoclonal antibodies 1A7 and 2F3, immunoprecipitated human and murine Sp35 (FIG. 1). […] Similarly, monoclonal antibodies 1G7, 2B10, 2F3, 3P4C2.2D2, 3P4C8.2G9, Li01, Li03, Li05, Li06, Li07, Li08, Li11, Li12, 7P1D5.1G9 and 3B5.2 immunoprecipitate human or mouse or human and mouse Sp35 (See Table 3B and 3C). Additionally, Li08 immunoprecipitates AP-Sp35 and monoclonal antibodies 1B6.4 and 3E3.1 immunoprecipitate endogenous Sp35 (See Table 3B)."}, "[3]": {"target": "T2, Sp35-Fc fusion protein (human Sp35 residues 1-532 fused to hinge and Fc of human IgG1) (human, UniProt Q96FE5 40-538)", "T2 construct": "ran as a dimer under non-reducing conditions; also called LINGO-1-Ig; not shown: hinge and Fc region of human IgG1", "T2 sequence": "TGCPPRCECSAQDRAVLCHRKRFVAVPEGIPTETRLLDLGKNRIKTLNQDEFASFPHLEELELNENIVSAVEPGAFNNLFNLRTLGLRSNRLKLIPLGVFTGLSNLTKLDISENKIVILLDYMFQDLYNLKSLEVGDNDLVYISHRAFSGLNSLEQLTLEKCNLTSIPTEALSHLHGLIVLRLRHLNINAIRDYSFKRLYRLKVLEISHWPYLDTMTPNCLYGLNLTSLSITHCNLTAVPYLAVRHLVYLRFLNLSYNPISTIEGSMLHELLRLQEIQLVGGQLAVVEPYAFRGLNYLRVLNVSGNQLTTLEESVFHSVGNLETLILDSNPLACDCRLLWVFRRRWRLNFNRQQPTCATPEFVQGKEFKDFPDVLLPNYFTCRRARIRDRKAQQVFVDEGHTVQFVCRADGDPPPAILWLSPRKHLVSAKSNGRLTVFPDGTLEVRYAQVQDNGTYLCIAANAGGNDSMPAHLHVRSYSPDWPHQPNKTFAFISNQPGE", "assay": "ELISA", "description": "In order to determine which regions of the Sp35 polypeptide were bound by the various hybridoma- and phage display-derived monoclonal antibodies produced in Example 2, an ELISA assay was performed using a panel of truncated Sp35 polypeptides, each fused to the hinge and Fc regions of IgG1 by the methods described in Example 1. […] Ovalbumin and BSA were used as controls. […] The affinity of these latter antibodies for mouse and rat Sp35 was restored to the level seen using human Sp35 when amino acid 419 of the mouse or rat Sp35 is changed from histidine (H) to arginine (R). Arginine is the amino acid at position 419 in human Sp35. […] AP substrate was then developed by 10 mg/ml 4NPP in 0.1 M Glycine, 1 mM MgCl₂, 1 mM ZnCl₂, pH 10.5, and read at O.D. 405."}, "[4]": {"target": "T3, human Sp35 protein expressed on transfected cells (human, UniProt Q96FE5 40-620)", "T3 construct": "also called huSp35; hLINGO-1", "T3 sequence": "T1 sequence", "assay": "IHC, transfected cells"}, "[5]": {"target": "T4, mouse Sp35 in cell lysate (immunoprecipitation, Western) (mouse, UniProt Q9D1T0 36-614, limits assumed)", "T4 construct": "also called mSp35; mLINGO-1", "T4 sequence (looked up)": "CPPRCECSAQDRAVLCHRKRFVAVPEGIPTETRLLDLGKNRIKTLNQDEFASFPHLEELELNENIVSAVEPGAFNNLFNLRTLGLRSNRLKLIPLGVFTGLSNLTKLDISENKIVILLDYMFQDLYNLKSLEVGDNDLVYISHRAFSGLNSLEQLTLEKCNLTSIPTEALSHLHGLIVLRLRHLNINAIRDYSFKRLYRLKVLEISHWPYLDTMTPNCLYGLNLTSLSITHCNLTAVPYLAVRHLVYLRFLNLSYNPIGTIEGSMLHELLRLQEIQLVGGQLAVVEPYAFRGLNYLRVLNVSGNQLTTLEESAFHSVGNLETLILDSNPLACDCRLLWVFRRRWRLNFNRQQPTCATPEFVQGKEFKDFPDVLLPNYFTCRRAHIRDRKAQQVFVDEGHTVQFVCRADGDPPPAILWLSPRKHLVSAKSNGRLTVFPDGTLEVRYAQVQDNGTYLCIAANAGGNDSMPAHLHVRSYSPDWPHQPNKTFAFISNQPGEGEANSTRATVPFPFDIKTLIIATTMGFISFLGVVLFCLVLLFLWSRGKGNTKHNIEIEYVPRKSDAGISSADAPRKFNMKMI", "assay": "IP", "description": "as §1"}, "[6]": {"target": "T3, human Sp35 protein expressed on …", "assay": "FACS, stable CHO"}, "Ig region of Sp35": {"target": "T5, Ig region of Sp35 (Homo sapiens (Human), UniProt Q96FE5 423-538, limits assumed)", "T5 sequence": "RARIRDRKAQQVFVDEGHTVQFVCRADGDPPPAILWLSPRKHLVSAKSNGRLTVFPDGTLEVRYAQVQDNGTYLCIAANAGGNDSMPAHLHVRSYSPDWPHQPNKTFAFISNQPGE", "assay": "ELISA"}, "[7]": {"target": "T6, mouse Sp35 protein expressed on transfected cells (mouse, UniProt Q9D1T0 36-614)", "T6 construct": "whole, on cells; also called mSp35; mLINGO-1", "T6 sequence (looked up)": "T4 sequence (looked up)", "assay": "FACS, stable CHO"}, "[8]": {"target": "T4, mouse Sp35 in cell lysate …", "assay": "IP", "remark": "listed apart in the source"}}, "note": "Where a chain is given by its changes, count along the chain named. Read-outs that look alike come from different tables or passages of the source."}
{"binder": "B1", "values": [{"measurement": "FACS on stable CHO", "setting": "[1]", "result": 5.5, "unit": "nM"}]}
{"binder": "B2", "values": [{"measurement": "binding result", "setting": "[2]", "result": "binds"}, {"measurement": "binding result", "setting": "[3]", "result": "binds"}, {"measurement": "binding result", "setting": "[4]", "result": "binds"}]}
{"binder": "B3", "values": [{"measurement": "binding result", "setting": "[2]", "result": "binds"}, {"measurement": "binding result", "setting": "[5]", "result": "binds"}]}
{"binder": "B4", "values": [{"measurement": "binding result", "setting": "[5]", "result": "binds"}]}
{"binder": "B5", "values": [{"measurement": "FACS on stable CHO", "setting": "[6]", "result": "~1", "unit": "nM"}]}
{"binder": "B6", "values": [{"measurement": "binding result", "setting": "Ig region of Sp35", "result": "no binding"}, {"measurement": "FACS on stable CHO", "setting": "[6]", "result": "< 0.4", "unit": "nM"}, {"measurement": "FACS on stable CHO", "setting": "[7]", "result": 0.4, "unit": "nM"}]}
{"binder": "B7", "values": [{"measurement": "binding result", "setting": "[8]", "result": "binds"}]}
{"binder": "B8", "values": [{"measurement": "binding result", "setting": "[8]", "result": "binds"}]}
